Measurements as given in publication PMC9519379 (Cell Reports Medicine, 2022).
Several values for one entry are separate records, joined by “and”; a condition that tells them apart may be missing. Identical values can stand only once.

Target: the molecule itself

B1: H84T-banana lectin (H84T-BanLec) (designed binder)
chain: MNGAIKVGAWGGNGGSAFDMGPAYRIISVKIFSGDVVDAVDVTFTYYGKTETRHFGGSGGTPHEIVLQEGEYLVGMKGEFGNYTGVVVVGKLGFSTNKKSYGPFGNTGGTPFSLPIAAGKISGFFGRGGDFIDAIGVYLEP
- stoichiometry N: 2 and 4
